Assay results: patent US8901069B2, “Protein matrix for light-initiated electron transfer” (Research Foundation of The City University of New York, priority 2009, dated 2014)

Tests used:
[1] = Reduction potential of polypeptide-bound heme/ferric cofactor vs. hydrogen electrode; type: physicochemical
Procedure: In Example 2, the reduction potential of the peptides prepared in Example 1 is regulated by modulation of peptide ionic charge and cofactor structure. The net charge of the polypeptides is calculated using conventional methods known in the art.

[2] = Heme binding affinity by titration of heme into anaerobic protein solution; conditions: oxidized heme; read-out: oxidized heme binding constant
[3] = type: physicochemical
Procedure: The reduced heme binding constants are also measured for His42→Phe mutants of the polypeptides.

Molecule: CGGGEIWKQHEEALKKFEEALKQFEELKKL (listed as Chemical synthesis) [HP-1]
- reduction potential difference spanned by three distinct ferric cofactors bound via bis-histidine ligation ([1]; three ferric cofactors, FIG. 4A): approximately 400 mV

B1: GEIWKQHEDALQKFEEALNQFEDLKQLGGSGCGSGGEIWKQHEDALQKFEEALNQFEDLKQL (protein, listed as Chemical synthesis)
chain: GEIWKQHEDALQKFEEALNQFEDLKQLGGSGCGSGGEIWKQHEDALQKFEEALNQFEDLKQL
notes: homodimeric helix-loop-helix variant of HP-6, recombinantly expressed in E. coli
- Kd [2]: 0.22 nM
- reduction potential of heme complex, more positive than HP-1-heme complex ([1]; difference vs HP-1-heme complex, earlier experiments): 45 mV

B2: CC-9: HP-7 peptide with specific Glu→Ala mutations (protein, listed as Chemical synthesis)
chain: GEIWKQHEDALQKFEEALNQFEDLKQLGGSGCGSGGEIWKQHADALQKFAEALNQFADLKQL
- increase in bound heme reduction potential compared to HP-7 ([1]; difference vs HP-7, FIG. 4B): 101 mV

B3: CC-10: HP-7 modified to incorporate the preferred consensus sequence (protein, listed as Chemical synthesis)
chain: GEIWKQHEDALQKFEEALNQFEDLKQLGGSGCGSGGEILKQHADAAQKIFEALNQFEDLKQL
- Kd [2]: 0.0107 nM
- stability of heme-bound complex [3]: long-term stability
